This note sets out measurements from the Human Domainome abundance scans (Beltran et al. 2025).

± gives the uncertainty stated by the source.

First the molecules themselves.
B1: Bromodomain adjacent to zinc finger domain protein 2B, residues 1927 to 1982; numbered along this chain, Q9UIF8 (parent)
chain: KSIMKVYCQICRKGDNEELLLLCDGCDKGCHTYCHRPKITTIPDGDWFCPACIAKA

In this data set the parent is B1. Nature of the data set: abundance fitness (aPCA) (normalised: wild type 0, dead -1); higher = more abundant; growth selection in yeast, the domain comes from the species named. Particulars: Homo sapiens.
KSIMKVYCQICRKGDNEELLYLCDGCDKGCHTYCHRPKITTIPDGDWFCPACIAKA [L21Y]: the abundance fitness is -0.374 ± 0.11.
With KSIMKVYCQICRKGDNEELLWLCDGCDKGCHTYCHRPKITTIPDGDWFCPACIAKA [L21W], the abundance fitness is -0.248 ± 0.1.
In the case of KSIMKVYCQICRKGDNEELLTLCDGCDKGCHTYCHRPKITTIPDGDWFCPACIAKA [L21T] it was -0.042 ± 0.097; in that of KSIMKVYCQICRKGDNEELLLLCDGCDLGCHTYCHRPKITTIPDGDWFCPACIAKA [K28L], -0.025 ± 0.097; in that of KSIMKVYCQICRKGDNEELLLLCDGCDFGCHTYCHRPKITTIPDGDWFCPACIAKA [K28F], 0.094 ± 0.14.
For KSIMKVYCQICRKGDNEELLLLCDGCDEGCHTYCHRPKITTIPDGDWFCPACIAKA [K28E], the abundance fitness amounted to 0.034 ± 0.11.
In the case of KSIMKVYCQICRKGDNEELLLLCDGCDGGCHTYCHRPKITTIPDGDWFCPACIAKA [K28G] it was -0.02 ± 0.079; in that of KSIMKVYCQICRKGDNEELLLLCDGCDAGCHTYCHRPKITTIPDGDWFCPACIAKA [K28A], -0.085 ± 0.079; in that of KSIMKVYCQICRKGDNEELLLLCDGCDDGCHTYCHRPKITTIPDGDWFCPACIAKA [K28D], -0.055 ± 0.13.
In the case of KSIMKVYCQICRKGDNEELLLLCDGCDMGCHTYCHRPKITTIPDGDWFCPACIAKA [K28M] it was -0.002 ± 0.12; in that of KSIMKVYCQICRKGDNEELLLLCDGCDNGCHTYCHRPKITTIPDGDWFCPACIAKA [K28N], -0.047 ± 0.14.
In the case of KSIMKVYCQICRKGDNEELLLLCDGCDIGCHTYCHRPKITTIPDGDWFCPACIAKA [K28I] it was -0.329 ± 0.15; in that of KSIMKVYCQICRKGDNEELLLLCDGCDHGCHTYCHRPKITTIPDGDWFCPACIAKA [K28H], 0.04 ± 0.2.
Take KSIMKVYCQICRKGDNEELLLLCDGCDCGCHTYCHRPKITTIPDGDWFCPACIAKA [K28C]: the abundance fitness was -0.158 ± 0.13.
In the case of KSIMKVYCQICRKGDNEELLLLCDGCDPGCHTYCHRPKITTIPDGDWFCPACIAKA [K28P] it was -0.755 ± 0.15; in that of KSIMKVYCQICRKGDNEELLLLCRGCDKGCHTYCHRPKITTIPDGDWFCPACIAKA [D24R], -0.061 ± 0.084.
KSIMKVYCQICRKGDNEELLLLCHGCDKGCHTYCHRPKITTIPDGDWFCPACIAKA [D24H]: the abundance fitness was -0.063 ± 0.17.
For KSIMKVYCQICRKGDNEELLLLCCGCDKGCHTYCHRPKITTIPDGDWFCPACIAKA [D24C], the abundance fitness was 0.073 ± 0.15.
Regarding KSIMKVYCQICRKGDNEELLLLCTGCDKGCHTYCHRPKITTIPDGDWFCPACIAKA [D24T], the abundance fitness turned out to be 0.06 ± 0.12.
KSIMKVYCQICRKGDNEELLLLCGGCDKGCHTYCHRPKITTIPDGDWFCPACIAKA [D24G]: the abundance fitness stood at 0.155 ± 0.095.
In the case of KSIMKVYCQICRKGDNEELLLLCFGCDKGCHTYCHRPKITTIPDGDWFCPACIAKA [D24F] it was -0.273 ± 0.18.
Regarding KSIMKVYCQICRKGDNEELLLLCAGCDKGCHTYCHRPKITTIPDGDWFCPACIAKA [D24A], the abundance fitness stood at 0.048 ± 0.11.
In the case of KSIMKVYCQICRKGDNEELLLLCMGCDKGCHTYCHRPKITTIPDGDWFCPACIAKA [D24M] it was 0.026 ± 0.13.
For KSIMKVYCQICRKGDNEELLLLCLGCDKGCHTYCHRPKITTIPDGDWFCPACIAKA [D24L], the abundance fitness is -0.034 ± 0.087.
Consider KSIMKVYCQICRKGDNEELLLLCPGCDKGCHTYCHRPKITTIPDGDWFCPACIAKA [D24P], for which the abundance fitness is -0.05 ± 0.11.
In the case of KSIMKVYCQICRKGDNEELLLLCQGCDKGCHTYCHRPKITTIPDGDWFCPACIAKA [D24Q] it was 0.08 ± 0.14; in that of KSIMKVYCQICRKGDNEELLLLCYGCDKGCHTYCHRPKITTIPDGDWFCPACIAKA [D24Y], -0.669 ± 0.14; in that of KSIMKVYCQICRKGDNEELLLLCKGCDKGCHTYCHRPKITTIPDGDWFCPACIAKA [D24K], -0.005 ± 0.13.
In the case of KSIMKVYCQICRKGDNEELLLLCSGCDKGCHTYCHRPKITTIPDGDWFCPACIAKA [D24S] it was 0.053 ± 0.089; in that of KSIMKVYCQICRKGDNEELLLLCNGCDKGCHTYCHRPKITTIPDGDWFCPACIAKA [D24N], 0.113 ± 0.12.
In the case of KSIMKVYCQICRKGDNEELLLLCEGCDKGCHTYCHRPKITTIPDGDWFCPACIAKA [D24E] it was 0.219 ± 0.14.
As to KSIMKVYCQICRKGDNEELLLECDGCDKGCHTYCHRPKITTIPDGDWFCPACIAKA [L22E], the abundance fitness came out at 0.029 ± 0.092.
In the case of KSIMKVYCQICRKGDNEELLLHCDGCDKGCHTYCHRPKITTIPDGDWFCPACIAKA [L22H] it was -0.039 ± 0.17; in that of KSIMKVYCQICRKGDNEELLLPCDGCDKGCHTYCHRPKITTIPDGDWFCPACIAKA [L22P], -0.126 ± 0.14; in that of KSIMKVYCQICRKGDNEELLLACDGCDKGCHTYCHRPKITTIPDGDWFCPACIAKA [L22A], 0.032 ± 0.083.
With KSIMKVYCQICRKGDNEELLLYCDGCDKGCHTYCHRPKITTIPDGDWFCPACIAKA [L22Y], the abundance fitness was -0.174 ± 0.17.
In the case of KSIMKVYCQICRKGDNEELLLVCDGCDKGCHTYCHRPKITTIPDGDWFCPACIAKA [L22V] it was -0.034 ± 0.085.
Turning to KSIMKVYCQICRKGDNEELLLTCDGCDKGCHTYCHRPKITTIPDGDWFCPACIAKA [L22T], the abundance fitness was -0.024 ± 0.12.
For KSIMKVYCQICRKGDNEELLLMCDGCDKGCHTYCHRPKITTIPDGDWFCPACIAKA [L22M], the abundance fitness is -0.067 ± 0.13.
In the case of KSIMKVYCQICRKGDNEELLLCCDGCDKGCHTYCHRPKITTIPDGDWFCPACIAKA [L22C] it was 0.008 ± 0.14; in that of KSIMKVYCQICRKGDNEELLLGCDGCDKGCHTYCHRPKITTIPDGDWFCPACIAKA [L22G], -0.006 ± 0.072; in that of KSIMKVYCQICRKGDNEELLLKCDGCDKGCHTYCHRPKITTIPDGDWFCPACIAKA [L22K], 0.144 ± 0.12.
In the case of KSIMKVYCQICRKGDNEELLLSCDGCDKGCHTYCHRPKITTIPDGDWFCPACIAKA [L22S] it was 0.01 ± 0.085; in that of KSIMKVYCQICRKGDNEELLLNCDGCDKGCHTYCHRPKITTIPDGDWFCPACIAKA [L22N], -0.051 ± 0.15.
Take KSIMKVYCQICRKGDNEELLLICDGCDKGCHTYCHRPKITTIPDGDWFCPACIAKA [L22I]: the abundance fitness was -0.054 ± 0.2.
As to KSIMKVYCQICRKGDNEELLLLCDGCAKGCHTYCHRPKITTIPDGDWFCPACIAKA [D27A], the abundance fitness was -0.112 ± 0.083.
As for KSIMKVYCQICRKGDNEELLLLCDGCSKGCHTYCHRPKITTIPDGDWFCPACIAKA [D27S], the abundance fitness is -0.099 ± 0.09.
